From patent publication US20230414780A1 (VECT HORUS, published 2023) come the findings set out here.

Assay [1] concerns the target T1, mouse TfR ectodomain fused to a mouse IgG1 Fc fragment (mouse, UniProt Q62351 89-763).
T1 construct: extracellular domain; not shown: mouse IgG1 Fc fragment
The assay is described as follows: SPR, at equilibrium. In short, it runs like this:
(§1)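 TfR–mouse Fc fusions, produced in-house, captured on HC 1500M or CM5 chips either directly or via immobilized anti-mouse IgG. VHHs injected in single-cycle or multiple-cycle kinetic mode on Biacore T200.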

In assay [2] the target is T2, rhesus monkey TfR ectodomain fused to a mouse IgG1 Fc fragment (rhesus monkey, UniProt I0FKY7 89-760).
T2 construct: extracellular domain; not shown: mouse IgG1 Fc fragment
The assay is described as follows: SPR, at equilibrium. In outline: as §1
(In general: Surface plasmon resonance follows binding to a sensor surface in real time, without labels.)

Assay [3] deals with T3, murine TfR expressed by murine neuroblastoma Neuro-2a cells (mouse, UniProt Q62351 1-763).
T3 construct: whole, on cells; also called mTfR (N2a cells)
The assay is described as follows: competition with C5-Alexa680 (100 nM) on living Neuro-2a cells, 3 hrs at 37 C, flow cytometry; Ki/app, mean ± SD. Here is the method:
The binding of VHH-Oligo and VHH-hFc-Oligo conjugates to mTfR was evaluated using a competition assay on living cells expressing the receptor of interest, namely murine neuroblastoma Neuro-2a cells (N2a). N2a cells were grown in Dulbecco's Modified Eagle Medium (DMEM) GlutaMAX supplemented with 10% v/v FBS in 5% CO₂ at 37° C. Cells were seeded two days before experiments in 96-well plates at a density of 50.000 cells/well. […] Resuspended cells were transferred in a 96-deepwell plate (V-bottom) containing 1% fetal bovine serum (FBS)/0.02% sodium azide in phosphate-buffered saline (PBS) and then centrifuged for 5 min at 2000 rpm at 4° C. After removing the supernatant, 5 mM EDTA in D-PBS and 4% paraformaldehyde (PFA) (v/v 1:1) were added into wells to fix cells for 15 min at room temperature. PFA was removed by centrifugation (5 min, 3000 rpm, 4° C.) and cells were resuspended with 5 mM EDTA in D-PBS. Then the cellular A680-associated fluorescence signal was quantified using an Attune™ NxT flow cytometer (Thermo Fisher Scientific) equipped with Attune™ NxT v3.1.2. Experimental data (experimental triplicates) were fitted with GraphPad Prism® software using a nonlinear fit to determine the apparent Ki inhibition constants.
(In flow cytometry, cells or beads pass a laser one at a time.)

Assay [4] addresses T4, human transferrin receptor (hTfR) fused to EGFP, on CHO cells (human, UniProt P02786 1-760).
T4 construct: whole, on cells; also called human TfR; CHO-hTfR-EGFP; not shown: EGFP from pEGFP-C1 vector, fused to the N-terminal (intracellular) end of hTfR
The assay is described as follows: flow cytometry on CHO-hTfR-EGFP cells, 1 hr at 4 C, anti-6His + Alexa647 anti-mouse; ratio to background fluorescence. Here is the method: FIGS. 15A-15H: In vitro gene silencing activity of VHH-siGFPst1 bioconjugates. […] CHO-hTfR-EGFP cells were incubated 1 hr at 4° C. with various concentrations of the indicated compounds. Detection of VHHs was performed using a primary mouse anti-6His (1/1000) and an Alexa647-conjugated anti-mouse secondary antibody (1/400). Measurements of cell-surface signal associated to VHH were performed using flow cytometry. The results are expressed as the ratio of Alexa647-associated fluorescence intensity of test compounds to that of background fluorescence. […] The total fluorescence associated to the EGFP protein was then quantified using flow cytometry and rationalized to that of untreated (control) cells (set at 100%) *** p≤0.001. […] The total fluorescence associated with the EGFP protein was then quantified using flow cytometry and rationalized to that of untreated (control) cells (set at 100%). […] CHO-hTfR-EGFP cells were incubated with the indicated compounds at 1 μM during 120 hrs at 37° C. Data were processed and analyzed as described in (B). *** p≤0.001 vs. untreated cells. […] The total fluorescence associated with the EGFP protein was then quantified using flow cytometry and rationalized to that of untreated (control) cells (set at 100%).

For assay [5], the target named is T4, human transferrin receptor (hTfR) fused …. The assay is described as follows: flow cytometry on CHO-hTfR-EGFP cells, 1 hr at 4 C, anti-6His + Alexa647 anti-mouse; nonlinear fit. Here is the method:
CHO-hTfR-EGFP cells were incubated 1 hr at 4° C. with various concentrations of the indicated compounds. Detection of VHHs was performed using a primary mouse anti-6His (1/1000) and an Alexa647-conjugated anti-mouse secondary antibody (1/400). Measurements of cell-surface signal associated with VHH were performed using flow cytometry. The results are expressed as the ratio of Alexa647-associated fluorescence intensity of test compounds to that of background fluorescence.

Assay [6] concerns the target T5, mouse transferrin receptor (mTfR) fused to EGFP, on CHO cells (mouse, UniProt Q62351 1-763).
T5 construct: whole, on cells; also called mouse TfR; CHO-mTfR-EGFP; not shown: EGFP
The assay is described as follows: apparent Kd, flow cytometry, CHO cells. In outline:
(§2)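 CHO cells expressing TfR-EGFP fusions, blocked in PBS/BSA 2%, then incubated with increasing VHH concentrations for 1 hr at 4° C. Bound VHH detected via anti-6His antibody and Alexa647 secondary, cells PFA-fixed, read by flow cytometry. Apparent Kd from nonlinear fit.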

The target of assay [7] is T6, rhesus monkey transferrin receptor (rhTfR) fused to EGFP, on CHO cells (rhesus monkey).
T6 construct: whole, on cells; also called rhesus monkey TfR
The assay is described as follows: apparent Kd, flow cytometry, CHO cells. In outline:
as §2

T4 sequence (P02786 whole entry, the tested form may be a part): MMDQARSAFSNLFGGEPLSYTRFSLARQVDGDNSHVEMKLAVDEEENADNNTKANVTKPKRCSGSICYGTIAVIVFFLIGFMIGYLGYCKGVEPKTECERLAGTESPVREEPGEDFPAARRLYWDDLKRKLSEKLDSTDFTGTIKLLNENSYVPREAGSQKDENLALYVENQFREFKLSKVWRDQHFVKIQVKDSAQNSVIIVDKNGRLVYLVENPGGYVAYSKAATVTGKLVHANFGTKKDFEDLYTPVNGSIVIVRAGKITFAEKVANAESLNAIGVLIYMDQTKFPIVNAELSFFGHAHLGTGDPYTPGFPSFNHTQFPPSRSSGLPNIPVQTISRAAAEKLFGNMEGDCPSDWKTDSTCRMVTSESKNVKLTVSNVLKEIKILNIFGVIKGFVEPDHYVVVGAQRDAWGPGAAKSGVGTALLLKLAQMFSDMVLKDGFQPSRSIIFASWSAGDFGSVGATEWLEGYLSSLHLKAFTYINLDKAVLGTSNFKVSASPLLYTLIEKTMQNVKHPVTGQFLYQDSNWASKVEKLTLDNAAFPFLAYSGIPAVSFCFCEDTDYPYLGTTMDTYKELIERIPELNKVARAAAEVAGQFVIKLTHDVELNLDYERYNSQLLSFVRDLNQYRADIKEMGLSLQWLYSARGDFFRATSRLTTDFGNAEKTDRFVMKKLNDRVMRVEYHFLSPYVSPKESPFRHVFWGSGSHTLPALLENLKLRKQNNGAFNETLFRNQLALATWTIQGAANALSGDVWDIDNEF
T3 sequence (Q62351 whole entry): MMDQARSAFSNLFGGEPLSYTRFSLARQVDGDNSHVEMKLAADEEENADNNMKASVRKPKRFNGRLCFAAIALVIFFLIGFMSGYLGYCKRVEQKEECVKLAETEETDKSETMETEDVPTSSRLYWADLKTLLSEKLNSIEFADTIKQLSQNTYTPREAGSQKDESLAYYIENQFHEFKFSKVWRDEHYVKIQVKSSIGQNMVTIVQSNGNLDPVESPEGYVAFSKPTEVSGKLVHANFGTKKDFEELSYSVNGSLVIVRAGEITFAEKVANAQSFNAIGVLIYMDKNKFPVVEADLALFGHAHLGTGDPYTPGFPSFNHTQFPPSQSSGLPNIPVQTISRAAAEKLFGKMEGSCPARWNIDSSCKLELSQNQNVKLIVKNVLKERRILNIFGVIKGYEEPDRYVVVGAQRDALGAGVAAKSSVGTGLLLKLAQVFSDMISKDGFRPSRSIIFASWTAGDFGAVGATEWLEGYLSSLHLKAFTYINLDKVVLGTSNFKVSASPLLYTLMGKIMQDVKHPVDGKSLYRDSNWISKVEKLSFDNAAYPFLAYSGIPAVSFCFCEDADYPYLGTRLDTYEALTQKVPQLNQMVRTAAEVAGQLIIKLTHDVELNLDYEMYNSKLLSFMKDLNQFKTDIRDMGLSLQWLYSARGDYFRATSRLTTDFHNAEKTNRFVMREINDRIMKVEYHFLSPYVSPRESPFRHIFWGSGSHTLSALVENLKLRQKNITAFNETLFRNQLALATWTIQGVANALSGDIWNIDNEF
T5 sequence (Q62351 whole entry, the tested form may be a part): as the sequence (Q62351 whole entry) above
T1 sequence (Q62351 89-763): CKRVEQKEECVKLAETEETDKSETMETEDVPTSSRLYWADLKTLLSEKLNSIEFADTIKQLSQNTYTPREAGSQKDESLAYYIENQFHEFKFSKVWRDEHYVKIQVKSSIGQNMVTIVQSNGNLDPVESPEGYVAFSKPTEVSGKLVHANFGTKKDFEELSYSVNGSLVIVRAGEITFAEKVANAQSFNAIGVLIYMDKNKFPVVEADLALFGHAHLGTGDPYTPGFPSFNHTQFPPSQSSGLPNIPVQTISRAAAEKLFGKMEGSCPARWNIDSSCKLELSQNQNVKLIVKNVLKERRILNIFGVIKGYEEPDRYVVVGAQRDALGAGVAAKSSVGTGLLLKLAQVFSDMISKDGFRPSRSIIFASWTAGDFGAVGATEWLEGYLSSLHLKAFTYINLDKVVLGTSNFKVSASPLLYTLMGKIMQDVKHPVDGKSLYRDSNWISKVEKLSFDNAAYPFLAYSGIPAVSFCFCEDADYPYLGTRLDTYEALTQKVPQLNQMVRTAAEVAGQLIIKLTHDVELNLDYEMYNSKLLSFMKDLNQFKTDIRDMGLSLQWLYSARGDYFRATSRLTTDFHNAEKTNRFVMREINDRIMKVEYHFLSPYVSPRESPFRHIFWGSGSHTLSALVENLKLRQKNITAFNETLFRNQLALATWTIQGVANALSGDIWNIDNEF

B1: VHH A (C5) (VHH)
VHH: EVQLVESGGGVVQPGGSLKLSCVASGTDFSINFIRWYRQAPGKQREFVAGFTATGNTNYADSMKGRFTISRDNTKNAVYLQIDSLKPEDTAVYYCYMLDKWGQGTQVTVSS
notes: form with the C-terminal myc-His6 tag (x = 1), since the VHHs were detected with anti-6His or anti-cMyc; the same holds for m12 to m126
The term EC50 (read off the curve) denotes the midpoint of the concentration-response curve. Take B1: the Kd in assay [1] amounted to 88.2 nM; in assay [2], 13.1 nM; in assay [5] it was 5.15 nM; in assay [6], 50 nM; in assay [7] it was 4.9 nM. For the same molecule, in assay [3], the Ki was 319 nM. Further, in assay [4], the “EC50 (read off the curve)” value was roughly 5 nM.
